Test results taken from patent publication US11299518B2, “Fusion respiratory syncytial virus inhibitors and use thereof” (priority 2016, dated 2022).
Values joined by “and” are separate entries in the source; they are usually repeats but may differ in a detail not shown here. Identical values can stand only once. Numbered stars: 1 amine (or outer) side, 2 acyl side, 3 side chain; on linkers, the order of the positions; unused ones are H or OH. Bridge positions count the residues as written; N and C are the ends. Square brackets hold non-standard residues; d marks the D form. Peptide text beside a SMILES is read from it. Nle(6-ylidene) = O=C([C@H](CCCC=[*:3])N[*:1])[*:2]; Gly(cPent) = N[C@H](C(=O)O)C1CCCC1; tBuAla = CC(C)(C)C[C@H](N)C(=O)O; Chg = N[C@H](C(=O)O)C1CCCCC1; R5 = C=CCCC[C@@](C)(N)C(=O)O; S5 = C=CCCC[C@](C)(N)C(=O)O

How the values were obtained:
[1] = circular dichroism; conditions: 10 mM phosphate; pH 7.5; 25 °C; 50 uM
[2] = CD spectroscopy, percentage of helicity; format: physicochemical; conditions: CD at 222 nm, 10 mM phosphate buffer pH 7.5, 50 μM peptide, 25° C.
Description: The secondary structure of the peptides was then characterized by circular dichroism (DC) as described below.
The circular dichroism spectra were acquired on a Jasco J-810 and on a Chirascan spectropolarimeter. The samples were prepared in 10 mM phosphate buffer, pH 7.5, at a peptide concentration of 50 μM. Data were recorded at 25° C. by stepscan from 180 nm to 260 nm in a 0.1 cm pathlength quartz cell using 0.2 nm wavelength increments, 1 nm bandwidth and a response time of 0.5 sec. Each spectrum was an average of three measurements and was subtracted from buffer baseline. The data were converted to per residue molar ellipticity units [θ] (deg·cm2·dmol−1·residue−1) and smoothed using the Igor software. The percentage of helicity was calculated as it follows:
[formula] whereby CD222=molar ellipticity at 222 nm in [mdeg], N=number of amino acids in the peptide and C=peptide molar concentration [mol/l].

| Compound | helicity [1] | % helicity [2] |
| --- | --- | --- |
| CC[C@H](C)[C@H](NC(=O)[C@H](CCCCN)NC(=O)[C@H](CCC(=O)O)NC(C)=O)C(=O)N[C@@H](CC(N)=O)C(=O)N[C@@H](CCC(N)=O)C(=O)N[C@@H](CO)C(=O)N[C@@H](CC(C)C)C(=O)N[C@H]1CCCC=CCCC[C@@H](C(=O)N[C@@H](CO)C(=O)N[C@@H](CC(=O)O)C(=O)N[C@H]2CCCC=CCCC[C@@H](C(=O)N[C@H](C(N)=O)C(C)C)NC(=O)[C@H](Cc3c[nH]cn3)NC(=O)[C@H](CC(C)C)NC(=O)[C@H](CC(C)C)NC2=O)NC(=O)[C@H](CCCNC(=N)N)NC(=O)[C@H]([C@@H](C)CC)NC(=O)[C@H](Cc2ccccc2)NC1=O (Ac-EKINQSL[Nle(6-ylidene)]FIR[Nle(6-ylidene)]SD[Nle(6-ylidene)]LLH[Nle(6-ylidene)]V-NH2; staple 8-12, 15-19) | 46% |  |
| CC[C@H](C)[C@@H]1NC(=O)[C@H](Cc2ccccc2)NC(=O)[C@@H](NC(=O)[C@H](CC(C)C)NC(=O)[C@H](CO)NC(=O)[C@@H]2CCCC=CCCC[C@@](C)(NC(=O)[C@H](CCC(=O)O)NC(C)=O)C(=O)N[C@@H]([C@@H](C)CC)C(=O)N[C@@H](CC(N)=O)C(=O)N2)CCCC=CCCC[C@@H](C(=O)N[C@@H](CO)C(=O)N[C@@H](CC(=O)O)C(=O)N[C@@H](CCC(=O)O)C(=O)N[C@@H](CC(C)C)C(=O)N[C@@H](CC(C)C)C(=O)N[C@@H](Cc2c[nH]cn2)C(=O)N[C@@H](CC(N)=O)C(=O)N[C@H](C(N)=O)C(C)C)NC(=O)[C@H](CCCNC(=N)N)NC1=O [Peptide 4ca2] (Ac-E[R5]IN[Nle(6-ylidene)]SL[Nle(6-ylidene)]FIR[Nle(6-ylidene)]SDELLHNV-NH2; staple 2-5, 8-12) | 58.1% | 58.1% |
| CC[C@H](C)[C@@H]1NC(=O)[C@H](Cc2ccccc2)NC(=O)[C@@](C)(NC(=O)[C@H](CC(C)C)NC(=O)[C@H](CO)NC(=O)[C@]2(C)CCCC=CCCC[C@@](C)(NC(C)=O)C(=O)N[C@@H]([C@@H](C)CC)C(=O)N[C@@H](CC(N)=O)C(=O)N2)CCCC=CCCC[C@@](C)(C(=O)N[C@@H](CO)C(=O)N[C@@H](CC(=O)O)C(=O)N[C@@H](CCC(=O)O)C(=O)N[C@@H](CC(C)C)C(=O)N[C@@H](CC(C)C)C(N)=O)NC(=O)[C@H](CCCNC(=N)N)NC1=O [Peptide 4ca16, X498 IN X501 SL X504 FIR X508 SDELL] (Ac-[R5]IN[S5]SL[S5]FIR[S5]SDELL-NH2; staple 1-4, 7-11) |  | >100% |
| CC[C@H](C)[C@@H]1NC(=O)[C@H](Cc2ccccc2)NC(=O)[C@@](C)(NC(=O)[C@H](CC(C)C)NC(=O)[C@H](CO)NC(=O)[C@]2(C)CCCC=CCCC[C@@](C)(NC(=O)[C@H](CCC(=O)O)NC(C)=O)C(=O)N[C@@H]([C@@H](C)CC)C(=O)N[C@@H](CC(N)=O)C(=O)N2)CCCC=CCCC[C@@](C)(C(=O)N[C@@H](CO)C(=O)N[C@@H](CC(=O)O)C(=O)N[C@@H](CCC(=O)O)C(=O)N[C@@H](CC(C)C)C(=O)N[C@@H](CC(C)C)C(=O)N[C@@H](Cc2c[nH]cn2)C(N)=O)NC(=O)[C@H](CCCNC(=N)N)NC1=O [Peptide 4ca18, E Xaa2 IN Xaa5 SL Xaa8 FIR Xaa12 SDELLH] (Ac-E[R5]IN[S5]SL[S5]FIR[S5]SDELLH-NH2; staple 2-5, 8-12) | 43% | 43% |
| CC[C@H](C)[C@@H]1NC(=O)[C@H](Cc2ccccc2)NC(=O)[C@@](C)(NC(=O)[C@H](CC(C)(C)C)NC(=O)[C@H](CO)NC(=O)[C@]2(C)CCCC=CCCC[C@@](C)(NC(=O)[C@H](CCC(=O)O)NC(C)=O)C(=O)N[C@@H]([C@@H](C)CC)C(=O)N[C@@H](CC(N)=O)C(=O)N2)CCCC=CCCC[C@@](C)(C(=O)N[C@@H](CO)C(=O)N[C@@H](CC(=O)O)C(=O)N[C@@H](CCC(=O)O)C(=O)N[C@@H](CC(C)C)C(=O)N[C@@H](CC(C)C)C(=O)N[C@@H](Cc2c[nH]cn2)C(=O)N[C@@H](CC(N)=O)C(=O)N[C@H](C(N)=O)C(C)C)NC(=O)[C@H](CCCNC(=N)N)NC1=O [Peptide 4ca-var1] (Ac-E[R5]IN[S5]S[tBuAla][S5]FIR[S5]SDELLHNV-NH2; staple 2-5, 8-12) | 89.3% | 89.3% |
| CC[C@H](C)[C@@H]1NC(=O)[C@H](Cc2ccccc2)NC(=O)[C@@](C)(NC(=O)[C@@H](NC(=O)[C@H](CO)NC(=O)[C@]2(C)CCCC=CCCC[C@@](C)(NC(=O)[C@H](CCC(=O)O)NC(C)=O)C(=O)N[C@@H]([C@@H](C)CC)C(=O)N[C@@H](CC(N)=O)C(=O)N2)C2CCCC2)CCCC=CCCC[C@@](C)(C(=O)N[C@@H](CO)C(=O)N[C@@H](CC(=O)O)C(=O)N[C@@H](CCC(=O)O)C(=O)N[C@@H](CC(C)C)C(=O)N[C@@H](CC(C)C)C(=O)N[C@@H](Cc2c[nH]cn2)C(=O)N[C@@H](CC(N)=O)C(=O)N[C@H](C(N)=O)C(C)C)NC(=O)[C@H](CCCNC(=N)N)NC1=O [Peptide 4ca-var2] (Ac-E[R5]IN[S5]S[Gly(cPent)][S5]FIR[S5]SDELLHNV-NH2; staple 2-5, 8-12) | 90.3% | 90.3% |
| CC[C@H](C)[C@@H]1NC(=O)[C@H](Cc2ccccc2)NC(=O)[C@@](C)(NC(=O)[C@@H](NC(=O)[C@H](CO)NC(=O)[C@]2(C)CCCC=CCCC[C@@](C)(NC(=O)[C@H](CCC(=O)O)NC(C)=O)C(=O)N[C@@H]([C@@H](C)CC)C(=O)N[C@@H](CC(N)=O)C(=O)N2)C2CCCCC2)CCCC=CCCC[C@@](C)(C(=O)N[C@@H](CO)C(=O)N[C@@H](CC(=O)O)C(=O)N[C@@H](CCC(=O)O)C(=O)N[C@@H](CC(C)C)C(=O)N[C@@H](CC(C)C)C(=O)N[C@@H](Cc2c[nH]cn2)C(=O)N[C@@H](CC(N)=O)C(=O)N[C@H](C(N)=O)C(C)C)NC(=O)[C@H](CCCNC(=N)N)NC1=O [Peptide 4ca-var3] (Ac-E[R5]IN[S5]S[Chg][S5]FIR[S5]SDELLHNV-NH2; staple 2-5, 8-12) | 91.4% | 91.4% |
| CC[C@H](C)[C@@H]1NC(=O)[C@H](Cc2ccccc2)NC(=O)[C@@](C)(NC(=O)[C@H](CC(C)C)NC(=O)[C@H](CO)NC(=O)[C@]2(C)CCCC=CCCC[C@@](C)(NC(=O)[C@H](CCC(=O)O)NC(C)=O)C(=O)N[C@@H]([C@@H](C)CC)C(=O)N[C@@H](CCCCN)C(=O)N2)CCCC=CCCC[C@@](C)(C(=O)N[C@@H](CO)C(=O)N[C@@H](CC(=O)O)C(=O)N[C@@H](CCC(=O)O)C(=O)N[C@@H](CC(C)(C)C)C(=O)N[C@@H](CC(C)C)C(=O)N[C@@H](Cc2c[nH]cn2)C(=O)N[C@@H](CC(N)=O)C(=O)N[C@H](C(N)=O)C(C)C)NC(=O)[C@H](CCCNC(=N)N)NC1=O [Peptide 4ca-var5, E Xaa2 IK Xaa5 SL Xaa8 FIR Xaa12 SDE Xaa16LHNV] (Ac-E[R5]IK[S5]SL[S5]FIR[S5]SDE[tBuAla]LHNV-NH2; staple 2-5, 8-12) | 82.3% | 82.3% |
| Ac-FDASISQVNEKINQSLAFIRKSDELLHNVNAGKST-NH2 (N-terminus and C-terminus assumed) [Peptide T118, reference compound] |  | 23.4% |
| EFPS X486 EFD X490 SI X493 QVN X497 KIN (EFPSXEFDXSIXQVNXKIN; not fully specified; (S)-2-(4-pentenyl)alanine residues, likely stapled; comparative peptide 1eg; (1)..(1) N-term acetylated; (5)..(5) (S)-2-(4-pentenyl)alanine; (9)..(9) (S)-2-(4-pentenyl)alanine; (12)..(12) (S)-2-(4-pentenyl)alanine; (16)..(16) (S)-2-(4-pentenyl)alanine; (19)..(19) C-term amidated) [comparative peptide; X486, X490, X493 and X497 are (S)-2-(4-pentenyl)alanine, reference compound] |  | 35.3% |
| EKA Xaa4 QSL Xaa8 FI Xaa11 KSD Xaa15 LLHNV (Ac-EKA[S5]QSL[S5]FI[S5]KSD[S5]LLHNV-NH2; staple 11-15, 4-8 (inferred)) [Peptide V4bb499] |  | 24% |
| EKI Xaa4 A SL Xaa8 FI Xaa11 KSD Xaa15 LLHNV (Ac-EKI[S5]ASL[S5]FI[S5]KSD[S5]LLHNV-NH2; staple 11-15, 4-8 (inferred)) [Peptide V4bb501] |  | 12% |
| EKI Xaa4 Q A L Xaa8 FI Xaa11 KSD Xaa15 LLHNV (Ac-EKI[S5]QAL[S5]FI[S5]KSD[S5]LLHNV-NH2; staple 11-15, 4-8 (inferred)) [Peptide V4bb502] |  | 15% |
| EKINQSL Xaa8 FIR Xaa12 SD Xaa15 LLH Xaa19 V (Ac-EKINQSL[(S)‑2‑(4-pentenyl)glycine]FIR[(S)‑2‑(4-pentenyl)glycine]SD[(S)‑2‑(4-pentenyl)glycine]LLH[(S)‑2‑(4-pentenyl)glycine]V-NH2; staple 8-12, 15-19 (inferred); not fully specified; printed as EKINQSL Xaa8 FIR Xaa12 SD Xaa15 LLH Xaa19 V) [Peptide 4a2, Xaa8, Xaa12, Xaa15 and Xaa19 are (S)-2-(4-pentenyl)glycine; Formula (C7)] |  | 46% |
| EQSLAFIRKSDELLHNV (comparative peptide 3) [non-stapled native comparative peptide, reference compound] |  | 5.9% and 6.6% |
